Article PMC6965139, “Crystal structures of fukutin-related protein (FKRP), a ribitol-phosphate transferase related to muscular dystrophy” (Nature Communications, 2020)
Substitutions are numbered along the chain they refer to. Values belong to the molecule of their own block, whether it stands above or below them.

Assays:
[1] = biological target: T1, sFKRP (secreted type, His/Myc, WT) (Homo sapiens, UniProt Q9H9S5); assay: ribitol-phosphate transfer, HPLC and MALDI-TOF MS; format: biochemical; details: 200 uM CDP-Rbo, 40 uM RboP-(phospho-)core M3 peptide, 10 mM MnCl2 and MgCl2, pH 6.5, 310 K; enzyme on anti-Myc agarose
T1 construct: gene FKRP; Asn33 to C-terminus in ss1-His/Myc-pcDNA3.1; secreted from HEK293T; immunoprecipitated on anti-c-Myc agarose; tags kept
T1 sequence (Q9H9S5 33-495): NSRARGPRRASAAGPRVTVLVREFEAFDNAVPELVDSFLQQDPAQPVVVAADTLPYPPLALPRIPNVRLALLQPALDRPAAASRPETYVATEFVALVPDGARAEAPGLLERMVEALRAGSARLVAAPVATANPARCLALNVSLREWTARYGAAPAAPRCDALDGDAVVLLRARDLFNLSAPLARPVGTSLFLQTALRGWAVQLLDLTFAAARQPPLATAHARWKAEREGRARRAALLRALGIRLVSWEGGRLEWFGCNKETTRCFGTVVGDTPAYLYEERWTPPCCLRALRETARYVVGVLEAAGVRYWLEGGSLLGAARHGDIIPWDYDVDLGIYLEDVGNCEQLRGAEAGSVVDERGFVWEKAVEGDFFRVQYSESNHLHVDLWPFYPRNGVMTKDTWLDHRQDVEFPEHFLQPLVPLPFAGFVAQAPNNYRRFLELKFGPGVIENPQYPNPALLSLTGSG

[2] = biological target: secreted type of FKRP Tyr88Phe mutant (Asn33 to the C-terminus, His/Myc) (human) (UniProt Q9H9S5)
[3] = biological target: secreted type of FKRP Ser221Arg mutant (Asn33 to the C-terminus, His/Myc) (human) (UniProt Q9H9S5)
[4] = biological target: secreted type of FKRP Leu276Ile mutant (Asn33 to the C-terminus, His/Myc) (human) (UniProt Q9H9S5)
[5] = biological target: the molecule itself; assay: crystal structure; sFKRP without substrates, Mg2+ and Ba2+ bound forms; four subunits in the asymmetrical unit; hanging-drop vapor diffusion at 293 K, PEG 4000, HEPES-NaOH pH 7.5; interfaces judged with ePISA

Molecule: Nc1ccn([C@@H]2O[C@H](COP(=O)(O)OP(=O)(O)OC[C@@H](O)[C@@H](O)[C@@H](O)CO)[C@@H](O)[C@H]2O)c(=O)n1 [CDP-Rbo]
ribitol-phosphate transfer, HPLC and MALDI-TOF MS [1]: Enzymatic activity of sFKRP with CDP-Rbo and the RboP-(phospho-)core M3 peptide

B3: secreted type of FKRP Leu276Ile mutant (Asn33 to the C-terminus, His/Myc) (enzyme)
chain: T1 sequence (Q9H9S5 33-495) with L244I
glycosyltransferase activity with CDP-Rbo and the RboP-(phospho-)core M3 peptide, relative to the wild-type enzyme (% of the wild-type enzyme) [4]: 50

B4: soluble form of fukutin-related protein (sFKRP, residues 45 to C-terminus) (enzyme, human, UniProt Q9H9S5 45-495, looked up)
chain: AGPRVTVLVREFEAFDNAVPELVDSFLQQDPAQPVVVAADTLPYPPLALPRIPNVRLALLQPALDRPAAASRPETYVATEFVALVPDGARAEAPGLLERMVEALRAGSARLVAAPVATANPARCLALNVSLREWTARYGAAPAAPRCDALDGDAVVLLRARDLFNLSAPLARPVGTSLFLQTALRGWAVQLLDLTFAAARQPPLATAHARWKAEREGRARRAALLRALGIRLVSWEGGRLEWFGCNKETTRCFGTVVGDTPAYLYEERWTPPCCLRALRETARYVVGVLEAAGVRYWLEGGSLLGAARHGDIIPWDYDVDLGIYLEDVGNCEQLRGAEAGSVVDERGFVWEKAVEGDFFRVQYSESNHLHVDLWPFYPRNGVMTKDTWLDHRQDVEFPEHFLQPLVPLPFAGFVAQAPNNYRRFLELKFGPGVIENPQYPNPALLSLTGSG
notes: fukutin-related protein (FKRP), human, residues 45 to C-terminus, 451 amino acid residues in total; stem domain 45-287, catalytic domain 288-495; Sugar chains were removed by Endo H glycosidase before the last gel filtration; also called lumenal region of human FKRP; not shown: protein A, N-terminal, cleaved
stoichiometry N [5]: 4

Continued, values first:

glycosyltransferase activity with CDP-Rbo and the RboP-(phospho-)core M3 peptide, relative to the wild-type enzyme (% of the wild-type enzyme) [2]: 20
B1: secreted type of FKRP Tyr88Phe mutant (Asn33 to the C-terminus, His/Myc) (enzyme)
chain: T1 sequence (Q9H9S5 33-495) with Y56F

glycosyltransferase activity with CDP-Rbo and the RboP-(phospho-)core M3 peptide, relative to the wild-type enzyme (% of the wild-type enzyme) [3]: 5
B2: secreted type of FKRP Ser221Arg mutant (Asn33 to the C-terminus, His/Myc) (enzyme)
chain: T1 sequence (Q9H9S5 33-495) with S189R
